Assay results as given in the supplement of paper PMC10126150.
± gives the standard deviation of the averaged measurements.

Tested on: ATP
Experiment: switch fluorescence ratio, 500 uM ATP over buffer (Cy3 cluster intensity, sum of 5 cycles each) (fold (ratio)); higher = stronger signal-on switching upon ATP binding; sequences stand for … in TCGTCGGCAGCGTCAGATGTGTATAAGAGACAGTTTTTTTTTTTTTTTTTTTTTTTTT…TC
Conditions: aptamer strand: ATP DNA aptamer (quencher-CACCTGGGGGAGTATTGCGGAGGAAGG + anchor), 100 nM annealed; ATP concentration: 500 uM
Method in brief: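 Cy3-labelled switching-strand clusters on a modified Illumina MiSeq flow-cell were annealed to 100 nM quencher-labelled ATP aptamer, imaged in selection buffer, then imaged after 15 min with 500 uM ATP at 22 °C. Five buffer/ATP cycles ran, with NaOH stripping and re-annealing between them. The fluorescence ratio is summed target-cycle over summed buffer-cycle Cy3 intensity per cluster, averaged per switch-domain sequence. Clusters outside 100-1000 RFU were excluded.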
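Also: ATP exposure 15 min at 22 °C before imaging.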

Sequence | switch fluorescence ratio
CCAGGCTTGT | 1.01 ± 0.018
CCAGGGACGA | 1.02 ± 0.024
CCAGGGGAGG | 1.11 ± 0.071
CCAGGGGCTG | 1.67 ± 0.89
CCAGGGGCTT | 1.31 ± 0.41
CCAGGGGGTC | 1.11 ± 0.14
CCAGGGTCGC | 0.9965 ± 0.0067
CCAGGTGGCT | 2.64 ± 0.3
CCAGGTTTGG | 1.03 ± 0.024
CCAGTAAGTG | 1.09 ± 0.03
CCAGTAATTT | 1.038 ± 0.0029
CCAGTACTTC | 1.11 ± 0.023
CCAGTCAACG | 0.9802 ± 0.0085
CCAGTGATGT | 1.04 ± 0.024
CCAGTGTATA | 1.002 ± 0.0013
CCATAACGGG | 0.97548 ± 0.0008
CCATAGGAAT | 1.06 ± 0.023
CCATAGGGGG | 0.989 ± 0.025
CCATATAGTT | 0.986 ± 0.03
CCATATCGTG | 0.988 ± 0.026
CCATATGGGG | 1.01 ± 0.019
CCATATTTAG | 0.996 ± 0.028
CCATCGGCTG | 1.06 ± 0.038

Sequence | switch fluorescence ratio
CCATCGTAAT | 4.84 ± 1.1
CCATGAGCAG | 2.06 ± 0.11
CCATGGGTTG | 1.01 ± 0.016
CCATGTTGAT | 1 ± 0.039
CCATTAATCT | 1.34 ± 0.46
CCATTCATTT | 0.991 ± 0.02
CCATTCTTGA | 0.996 ± 0.037
CCATTCTTGG | 0.977 ± 0.018
CCATTGTTAT | 0.988 ± 0.017
CCATTGTTTT | 0.997 ± 0.018
CCATTTGAGA | 0.998 ± 0.022
CCATTTTGCA | 1.04 ± 0.05
CCCAAGGGCA | 1.02 ± 0.051
CCCAATTTGC | 1.32 ± 0.022
CCCACAGGAC | 1.73 ± 0.14
CCCAGCTTGT | 1.035 ± 0.0031
CCCAGGCGGA | 1.65 ± 0.78
CCCAGGTAGC | 4.65 ± 0.43
CCCATGTATC | 1.09 ± 0.011
CCCATTTGTA | 1 ± 0.026
CCCATTTTGT | 0.991 ± 0.02
CCCCATTCCG | 1.04 ± 0.022
CCCCGAAACT | 2.28 ± 1.5

Sequence | switch fluorescence ratio
CCCCGAGCCG | 1.02 ± 0.06
CCCGATTTTT | 0.993 ± 0.017
CCCGCTGCTT | 1.33 ± 0.021
CCCGGCCATT | 1.05 ± 0.013
CCCGGCGAGT | 1.08 ± 0.038
CCCGGGGGAA | 1.03 ± 0.014
CCCGGGTATG | 1.03 ± 0.02
CCCGGGTTAG | 1.08 ± 0.028
CCCTAATACG | 1.76 ± 0.044
CCCTGGGGTA | 1.07 ± 0.056
CCCTGTAGGA | 1.04 ± 0.088
CCCTTGACGG | 1.07 ± 0.14
CCCTTTTTTG | 1.02 ± 0.05
CCGAAATTTT | 1.05 ± 0.016
CCGAACACCT | 1.219 ± 0.0037
CCGAAGGGGC | 1.52 ± 0.083
CCGAATATGA | 1.55 ± 0.079
CCGACATGGT | 1.27 ± 0.11
CCGACGTAGG | 2.494 ± 0.017
CCGAGGGCAG | 2.75 ± 0.36
CCGAGTAGGG | 1.074 ± 0.0031
CCGAGTGGAG | 1.083 ± 0.0024
CCGAGTTATA | 2.15 ± 0.013

Sequence | switch fluorescence ratio
CCGATCGTGG | 2.86 ± 1.9
CCGATGTATA | 1.35 ± 0.053
CCGATTCGGG | 1.012 ± 0.0064
CCGATTGGTC | 1.117 ± 0.0062
CCGATTTATA | 1.013 ± 0.0052
CCGCATTTTT | 2.19 ± 0.82
CCGCCCTATT | 1.4 ± 0.024
CCGCGCACCG | 1.73 ± 0.053
CCGCGGATGG | 1.25 ± 0.15
CCGCGGCGGG | 1.04 ± 0.028
CCGCGTCTGT | 1.24 ± 0.032
CCGCTGGGCT | 1.83 ± 0.056
CCGCTTTTAT | 2.69 ± 0.48
CCGGAAACCA | 1.01 ± 0.021
CCGGAAATTT | 1.01 ± 0.019
CCGGAAGGGC | 1.84 ± 0.69
CCGGAGTGGA | 2.56 ± 1.3
CCGGATTATG | 1.05 ± 0.016
CCGGCCCACA | 1.266 ± 0.0065
CCGGCCCCGG | 1.68 ± 0.028
CCGGCGCGTG | 1.06 ± 0.1
CCGGCGGGAG | 1.099 ± 0.0064
CCGGCTGGGT | 0.9584 ± 0.0069

Sequence | switch fluorescence ratio
CCGGGAACGC | 1.29 ± 0.024
CCGGGAGTAC | 2.14 ± 0.55
CCGGGAGTGT | 1.12 ± 0.013
CCGGGCCTGC | 1.11 ± 0.014
CCGGGCGATG | 1.6 ± 0.1
CCGGGCGGAT | 1.02 ± 0.0099
CCGGGGAGGT | 1.06 ± 0.1
CCGGGGAGTC | 1.04 ± 0.044
CCGGGGGGGT | 1.09 ± 0.077
CCGGGGGTCA | 1.01 ± 0.039
CCGGGGTGGG | 0.9964 ± 0.0055
CCGGGGTGTT | 1.22 ± 0.3
CCGGGTAAAA | 1.03 ± 0.057
CCGGGTAATG | 1.27 ± 0.028
CCGGGTCGGG | 1.006 ± 0.0049
CCGGGTCGGT | 0.9554 ± 0.0036
CCGGGTGACC | 1.143 ± 0.0068
CCGGGTGTGG | 1.03 ± 0.028
CCGGGTTTCG | 0.996 ± 0.035
CCGGTAAGGA | 0.994 ± 0.015
CCGGTATTGA | 0.994 ± 0.017
CCGGTCCCTA | 1 ± 0.011
CCGGTGCGTG | 1.13 ± 0.14

Sequence | switch fluorescence ratio
CCGGTGGGGA | 1.12 ± 0.064
CCGGTGTCTG | 1.05 ± 0.09
CCGGTTATGA | 1.04 ± 0.02
CCGGTTGCAT | 4.54 ± 1.9
CCGGTTTTTA | 0.996 ± 0.01
CCGTAAGCAG | 1.96 ± 0.034
CCGTAATTGA | 2.75 ± 0.16
CCGTACGTTT | 1.24 ± 0.024
CCGTATAATG | 0.98 ± 0.034
CCGTATGTGC | 1.751 ± 0.0087
CCGTCAAGAG | 4.35 ± 0.16
CCGTGAGGTG | 1.135 ± 0.01
CCGTGAGTTT | 1.07 ± 0.04
CCGTGCAGTT | 2.12 ± 0.82
CCGTGGGTTT | 1.059 ± 0.0031
CCGTGTTGCG | 1.01 ± 0.022
CCGTGTTTTT | 0.988 ± 0.032
CCGTTAGCGG | 1.1074 ± 0.00044
CCGTTATCTC | 2.81 ± 1
CCGTTATTCT | 1.35 ± 0.27
CCGTTGTGCC | 1.022 ± 0.0018
CCGTTTCGTG | 0.9948 ± 0.0046
CCGTTTGCAG | 1.13 ± 0.15

Sequence | switch fluorescence ratio
CCGTTTGGCA | 1.15 ± 0.022
CCGTTTTTTG | 1 ± 0.032
CCTAAGAATG | 1.043 ± 0.0035
CCTACATTG | 1 ± 0.02
CCTAGAGAGG | 1.031 ± 0.006
CCTAGGGGAA | 1.02 ± 0.022
CCTAGTACCT | 1.19 ± 0.05
CCTAGTTGAA | 1.03 ± 0.015
CCTAGTTTTT | 0.997 ± 0.023
CCTATAAAGG | 1.03 ± 0.04
CCTATACAAC | 1.11 ± 0.044
CCTATCACAA | 3.47 ± 0.46
CCTATCCCTG | 1.08 ± 0.058
CCTATGGGTT | 1.05 ± 0.015
CCTATTGGGG | 1.02 ± 0.037
CCTCAAAGCT | 1.794 ± 0.0088
CCTCAGAGGG | 1.24 ± 0.22
CCTCAGGGAA | 1.2 ± 0.14
CCTCATAGTC | 1.413 ± 0.0066
